# Target: target antigen
# Assay: antigen binding ELISA, antigen coated on plate
substance,measurement,value
isotype control (antibody),no binding up to (highest concentration tested),> 5 µM

# Source: patent publication US20250270325A1
